From patent publication US5683903

Target: macrophage scavenger receptors on transfected 293 cells (human macrophage scavenger receptor type I or type II; the filing does not say which)
Assay: radioligand binding/uptake on transfected HEK 293 cells; about 5 µg/ml, 5 hours at 37° C.

[125I]-acetylated LDL
binding/uptake (µg/mg protein): 1.75
